Test results taken from the supplement of paper PMC7877785.
± gives the uncertainty stated by the source.

Assay: self-splicing fitness, log relative to wild type (ln ratio); higher = more splicing; Tetrahymena group I intron in knt gene, E. coli kanamycin selection, DiMSum; sequences stand for … in CUCUCU…GGAGGGAAAAGUUAUCAGGCAUGCACCUGGUAGCUAGUCUUUAAACCAAUAGAUUGCAUCGGUUUAAAAGGCAAGACCGUCAAAUUGCGGGAAAGGGGUCAACAGCCGUUCAGUACCAAGUCUCAGGGGAAACUUUGAGAUGGCCUUGCAAAGGGUAUGGUAAUAAGCUGACGGACAUGGUCCUAACCACGCAGCCAAGUCCUAAGUCAACAGAUCUUCUGUUGAUAUGGAUGCAGUUCACAGACUAAAUGUCGGUCGGGGAAGAUGUAUUCUUCUCAUAAGAUAUAGUCGGACCUCUCCUUAAUGGGAGCUAGCGGAUGAAGUGAUGCAACACUGGAGCCGCUGGGAACUAAUUUGUAUGCGAAAGUAUAUUGAUUAGUUUUGGAGUACUCGUGGUCG
Outline: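 Library with all eight P1ex-region intron nucleotides randomised, intron inside the knt kanamycin-resistance gene on pET-22b(+), in E. coli BL21(DE3). Cells grew overnight at 37°C or 30°C on LB agar with or without 25 μg/mL kanamycin (plus 100 μg/mL carbenicillin, 50 μM IPTG, 0.2% rhamnose), in six replicate transformations. Pooled colonies were amplicon-sequenced on Illumina HiSeq 2500. DiMSum fitness is the error-weighted combination of wild-type-normalised replicate fold changes, kanamycin versus none.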

Sequence	self-splicing fitness (ln) (30 °C)	self-splicing fitness (ln) (37 °C)
ACAAAGCAAUAUUACGAAUU	-3.38 ± 0.2	-2.12 ± 0.18
ACAAAGCAAUAUUACGACAA	-0.955 ± 0.15	-0.443 ± 0.13
ACAAAGCAAUAUUACGACAC	-1.54 ± 0.084	-0.962 ± 0.1
ACAAAGCAAUAUUACGACGC	-0.112 ± 0.044	0.422 ± 0.066
ACAAAGCAAUAUUACGACUA	-0.772 ± 0.082	-0.796 ± 0.084
ACAAAGCAAUAUUACGACUU	-0.336 ± 0.06	0.0905 ± 0.079
ACAAAGCAAUAUUACGAGGG	-3.39 ± 0.11	-2.14 ± 0.11
ACAAAGCAAUAUUACGAUCU	-0.717 ± 0.067	-0.0747 ± 0.083
ACAAAGCAAUAUUACGAUGC	-1.61 ± 0.11	-1.9 ± 0.15
ACAAAGCAAUAUUACGCAAA	-2.72 ± 0.14	-1.6 ± 0.12
ACAAAGCAAUAUUACGCAGC	-2.63 ± 0.17	-0.879 ± 0.16
ACAAAGCAAUAUUACGCAUA	-2.12 ± 0.12	-0.921 ± 0.11
ACAAAGCAAUAUUACGCCCA	-1.24 ± 0.11	-0.225 ± 0.13
ACAAAGCAAUAUUACGCCCU	-0.361 ± 0.098	0.683 ± 0.14
ACAAAGCAAUAUUACGCGUA	-1.4 ± 0.099	-0.512 ± 0.097
ACAAAGCAAUAUUACGCUCU	-1.09 ± 0.063	-0.102 ± 0.095
ACAAAGCAAUAUUACGGCUG	-0.524 ± 0.069	-0.277 ± 0.088
ACAAAGCAAUAUUACGGCUU	-0.982 ± 0.084	-0.814 ± 0.12
ACAAAGCAAUAUUACGGUAG	-3.48 ± 0.16	-3.21 ± 0.24
ACAAAGCAAUAUUACGGUCA	-0.595 ± 0.069	-0.472 ± 0.07
ACAAAGCAAUAUUACGUAAA	-2.08 ± 0.069	-0.302 ± 0.092

Sequence	self-splicing fitness (ln) (30 °C)	self-splicing fitness (ln) (37 °C)
ACAAAGCAAUAUUACGUAGC	-2.35 ± 0.086	-2.01 ± 0.12
ACAAAGCAAUAUUACGUCAU	-3.08 ± 0.12	-2.4 ± 0.14
ACAAAGCAAUAUUACGUCUU	-0.827 ± 0.051	-0.41 ± 0.064
ACAAAGCAAUAUUACGUGUA	-2.6 ± 0.1	-1.56 ± 0.084
ACAAAGCAAUAUUACGUUCC	-2.06 ± 0.11	-1.73 ± 0.15
ACACAGCAAUAUUACGAAUG	-2.63 ± 0.1	-1.08 ± 0.084
ACACAGCAAUAUUACGACAU	-0.676 ± 0.01	-0.0836 ± 0.031
ACACAGCAAUAUUACGAGUC	-5.36 ± 0.27	-3.05 ± 0.19
ACACAGCAAUAUUACGCACU	-0.282 ± 0.045	0.182 ± 0.058
ACACAGCAAUAUUACGCAUC	-3.23 ± 0.21	-0.58 ± 0.094
ACACAGCAAUAUUACGCCCC	-1.66 ± 0.14	-0.901 ± 0.15
ACACAGCAAUAUUACGCCCG	-0.876 ± 0.092	-0.533 ± 0.12
ACACAGCAAUAUUACGCGAC	-2.72 ± 0.098	-2.15 ± 0.11
ACACAGCAAUAUUACGCGGC	-2.29 ± 0.12	-2.92 ± 0.16
ACACAGCAAUAUUACGCGGU	-4.42 ± 0.23	-2.89 ± 0.17
ACACAGCAAUAUUACGCUCG	-0.365 ± 0.064	0.194 ± 0.085
ACACAGCAAUAUUACGGAAG	-3.07 ± 0.14	-1.12 ± 0.11
ACACAGCAAUAUUACGGACG	-0.635 ± 0.057	0.0496 ± 0.073
ACACAGCAAUAUUACGGAUA	-2.87 ± 0.15	-2.54 ± 0.15
ACACAGCAAUAUUACGGCCU	-0.094 ± 0.086	-0.0787 ± 0.12
ACACAGCAAUAUUACGGGAC	-3.3 ± 0.14	-2.12 ± 0.14
